For assay [1], the target named is ZZ-ctRed1_(spep) (residues 1040–1091) (Chaetomium thermophilum). Kind of assay: ITC; MicroCal PEAQ-ITC, 25 °C, 20 mM HEPES pH 7.5, 150 mM NaCl; 30 µM ZZ-ctRed1spep in the cell, 250 µM ctMtr4SA in the syringe; duplicate.
In assay [2] the target is T1, full-length spArs2 (in vitro binding) (S. pombe, UniProt O94326 1-609).
T1 construct: Ars2, S. pombe; source: E. coli (vectors for expression in E. coli)
T1 sequence (looked up): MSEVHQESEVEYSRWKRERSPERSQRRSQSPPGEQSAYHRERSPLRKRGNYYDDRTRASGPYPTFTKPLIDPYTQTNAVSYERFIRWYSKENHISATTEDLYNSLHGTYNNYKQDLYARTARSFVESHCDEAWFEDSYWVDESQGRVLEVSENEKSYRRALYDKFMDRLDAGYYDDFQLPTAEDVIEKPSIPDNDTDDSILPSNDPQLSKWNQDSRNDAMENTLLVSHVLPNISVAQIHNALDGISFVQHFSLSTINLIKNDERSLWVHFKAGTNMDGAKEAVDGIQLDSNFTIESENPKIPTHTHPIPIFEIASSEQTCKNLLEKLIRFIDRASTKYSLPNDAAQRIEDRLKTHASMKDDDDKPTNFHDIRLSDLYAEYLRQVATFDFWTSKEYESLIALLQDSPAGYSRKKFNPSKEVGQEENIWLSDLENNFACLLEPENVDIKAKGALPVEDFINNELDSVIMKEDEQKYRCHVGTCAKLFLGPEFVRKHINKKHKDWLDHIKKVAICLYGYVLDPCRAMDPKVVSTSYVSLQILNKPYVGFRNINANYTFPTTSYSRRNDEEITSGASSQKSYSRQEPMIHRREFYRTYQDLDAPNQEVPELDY
Kind of assay: pull-down; GST pull-down: bait with 1.5 molar excess of prey, 20 mM HEPES pH 7.5, 150 mM NaCl (or higher, up to 600 mM or 1.5 M in the washes), 5% glycerol, 0.1% NP-40, 4 °C, glutathione agarose; SDS-PAGE, Coomassie. The note with it: both partners purified.

In assay [1], “ctMtr4SA (residues 654–865), purified for ITC (domain or fragment)” had a Kd of 115 nM and a stoichiometry N of 1.

B1: GST-tagged spRed1 peptide (SDKEDGEISEDDP) (peptide)
chain: SDKEDGEISEDDP
notes: source: E. coli (vectors for expression in E. coli)
Consider B1, for which the binding result in assay [2] was “binds”.

The values above are taken from paper PMC8187409, “The zinc-finger protein Red1 orchestrates MTREC submodules and binds the Mtl1 helicase arch domain” (Nature Communications, 2021).
